Measurements as given in the Human Domainome abundance scans (Beltran et al. 2025).

B1: Tyrosine-protein kinase Lck, residues 63 to 120; numbered along this chain, P06239 (parent)
chain: DNLVIALHSYEPSHDGDLGFEKGEQLRILEQSGEWWKAQSLTTGQEGFIPFNFVAKAN

Variants of: B1
Test: abundance fitness (aPCA) (normalised: wild type 0, dead -1); higher = more abundant; growth selection in yeast, the domain comes from the species named
Settings: Homo sapiens

Abundance fitness, by site and new letter:
S13: I -0.215, K 0.171, M -0.026, N -0.061, P -0.358, Q -0.034, T 0.047, V -0.097, Y -0.18
H14: A 0.027, C -0.033, D -0.219, E -0.051, F -0.187, G -0.059, I -0.118, K 0.072, L -0.267, N 0.12, P -0.793, Q -0.079, R 0.039, S -0.031, V -0.104, W -0.328, Y -0.165
D15: A -0.046, C -0.196, F -0.148, G -0.196, H -0.071, I -0.225, K 0.111, L -0.106, M -0.225, P -0.075, Q -0.02, R -0.053, T -0.124, V -0.273, W -0.461, Y -0.071
G16: A -0.366, C -0.241, E -0.247, F -0.309, H -0.114, I -0.322, K -0.362, M -0.259, P -1.03, S -0.174, T -0.152, V -0.328, Y -0.218
D17: A -0.006, C -0.022, E 0.063, F -0.229, G -0.042, H 0.011, K 0.051, L -0.116, M -0.022, N -0.177, P -0.762, R -0.009, S -0.045, T -0.255, V -0.111, W -0.083
L18: A -0.591, C -0.898, D -0.779, E -0.757, F -0.449, G -0.717, H -0.732, I -0.176, K -0.946, M -0.295, N -0.722, Q -0.876, R -0.86, S -0.884, T -0.714, V -0.441, W -0.978, Y -0.725
G19: A -0.039, C -0.16, D -0.648, E -0.393, F -0.567, H -0.299, I -0.538, K -0.108, L -0.604, M -0.31, N -0.397, P -0.16, Q -0.256, R -0.142, T -0.375, V -0.47, W -0.823, Y -0.55
F20: A -0.52, C -0.541, D -0.845, G -0.921, H -0.836, I -0.47, K -0.705, L -0.411, M -0.293, N -0.7, P -0.818, Q -0.825, R -0.976, S -0.949, T -0.406, V -0.222, W -1.04, Y -0.756
E21: A -0.062, D -0.205, F -0.515, G -0.349, H -0.001, L -0.11, M -0.134, N -0.248, P -0.914, Q 0.007, R -0.052, S -0.042, T -0.129, V 0.022, W -0.481, Y -0.415
K22: A -0.174, C -0.303, F -0.603, G -0.674, H -0.593, I -0.526, L -0.625, M -0.514, N -0.777, P -0.801, Q -0.371, R -0.252, T -0.187, W -0.928
G23: C -0.829, D -0.477, E -0.823, F -0.573, H -0.397, I -0.79, K -0.792, L -0.832, M -0.792, N -0.066, P -1.01, Q -0.903, S -0.635, T -0.917, V -1.04, W -0.648, Y -0.655
E24: A -0.357, C -0.628, D -0.095, F -0.997, G -0.725, H -0.774, I -0.758, K -0.82, L -0.999, M -0.673, N -0.608, P -0.891, Q -0.385, R -0.902, S -0.506, T -0.754, V -0.835, W -0.704, Y -0.829
Q25: A -0.165, C -0.096, D -0.357, E -0.021, H -0.143, I -0.181, K 0.09, M 0.022, N 0.069, P -0.276, S -0.053, T 0.078, V -0.017, W -0.169, Y -0.047
L26: A -0.987, C -1.28, E -0.596, F -0.28, G -0.704, H -0.728, I -0.648, K -0.919, M -0.126, N -0.787, P -0.909, Q -0.572, R -0.726, S -0.84, V -0.781, W -0.864, Y -0.929
R27: C -0.208, D -0.421, E -0.022, F -0.448, G -0.881, H -0.049, I -0.162, K -0.154, L -0.056, M -0.309, N -0.471, P -0.914, S -0.465, T -0.24, V -0.062, W -0.44, Y -0.193
I28: A -0.554, C -0.658, D -0.833, E -0.969, F -0.977, G -0.754, H -1.03, K -0.903, L -0.074, M -0.662, N -0.585, P -0.885, Q -0.924, R -0.874, S -0.645, T -0.683, V -0.108, W -0.941, Y -0.459
L29: A -0.645, C -0.441, D -0.852, F -0.527, G -0.734, H -0.184, I -0.339, K -0.325, M -0.315, P -1.05, Q -0.401, R -0.591, S -0.44, T -0.283, W -0.87, Y -0.227
E30: A -0.115, C -0.265, D -0.087, F -0.45, G -0.21, H -0.247, I -0.586, K -0.248, L -0.601, M -0.278, P -0.752, Q -0.161, R -0.285, T -0.293, V -0.17, W -0.503, Y -0.362
Q31: A 0.032, C -0.097, D -0.011, E 0.025, F -0.5, H -0.301, I -0.552, K 0.003, L -0.707, P -0.235, R 0.054, T -0.291, V -0.354, W -0.161, Y -0.234
S32: A -0.067, D -0.07, E 0.182, G -0.071, H -0.302, I -0.226, K 0.06, L -0.377, N 0.101, P -0.407, Q 0.182, R 0.012, T 0.05, W -0.455, Y -0.082
G33: A -0.398, C -0.491, D -0.467, E -0.491, F -0.853, H -0.633, K -0.545, L -0.812, N -0.145, P -0.544, Q -0.767, S -0.166
